# Assay results reported in patent US20240270821A1, “GIP/GLP1/GCG TRI-RECEPTOR AGONISTS AND USES THEREOF” (priority 2023, published 2024).
# T1: human GIP receptor (human) (UniProt P48546)
# T1 sequence (looked up): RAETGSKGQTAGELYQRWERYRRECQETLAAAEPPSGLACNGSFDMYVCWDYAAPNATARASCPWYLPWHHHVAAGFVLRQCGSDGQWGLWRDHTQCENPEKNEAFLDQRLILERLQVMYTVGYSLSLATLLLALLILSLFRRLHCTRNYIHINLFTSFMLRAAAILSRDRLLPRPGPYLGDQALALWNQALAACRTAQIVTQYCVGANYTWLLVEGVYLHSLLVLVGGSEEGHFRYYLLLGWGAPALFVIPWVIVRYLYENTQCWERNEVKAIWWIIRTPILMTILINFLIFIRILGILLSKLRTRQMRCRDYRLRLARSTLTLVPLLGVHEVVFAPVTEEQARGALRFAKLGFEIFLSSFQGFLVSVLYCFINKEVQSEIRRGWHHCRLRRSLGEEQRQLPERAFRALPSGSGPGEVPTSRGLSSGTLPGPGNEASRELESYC
# Assays:
# Test in all cases: cell-based or functional assay
# [1] = target: T1, human GIP receptor (human)
# hGLP-1R = hGLP-1R (Homo sapiens, UniProt P43220)
# Sequence of hGLP-1R (P43220 24-463): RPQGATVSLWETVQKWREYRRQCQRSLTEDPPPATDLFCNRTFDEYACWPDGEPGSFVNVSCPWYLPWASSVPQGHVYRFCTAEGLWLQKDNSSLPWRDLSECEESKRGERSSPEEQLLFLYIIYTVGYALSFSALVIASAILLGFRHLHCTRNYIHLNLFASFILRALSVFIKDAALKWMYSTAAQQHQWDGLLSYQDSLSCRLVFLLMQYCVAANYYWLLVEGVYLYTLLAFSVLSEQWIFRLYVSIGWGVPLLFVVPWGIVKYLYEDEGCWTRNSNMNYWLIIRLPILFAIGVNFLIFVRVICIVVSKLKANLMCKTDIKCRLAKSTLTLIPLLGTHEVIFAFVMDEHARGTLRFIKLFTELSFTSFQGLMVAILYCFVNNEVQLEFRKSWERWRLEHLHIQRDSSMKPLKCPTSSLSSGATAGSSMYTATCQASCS
# [2] = target: human glucagon receptor (human) (UniProt P47871)
# Sequence of human glucagon receptor (human) (P47871 26-477): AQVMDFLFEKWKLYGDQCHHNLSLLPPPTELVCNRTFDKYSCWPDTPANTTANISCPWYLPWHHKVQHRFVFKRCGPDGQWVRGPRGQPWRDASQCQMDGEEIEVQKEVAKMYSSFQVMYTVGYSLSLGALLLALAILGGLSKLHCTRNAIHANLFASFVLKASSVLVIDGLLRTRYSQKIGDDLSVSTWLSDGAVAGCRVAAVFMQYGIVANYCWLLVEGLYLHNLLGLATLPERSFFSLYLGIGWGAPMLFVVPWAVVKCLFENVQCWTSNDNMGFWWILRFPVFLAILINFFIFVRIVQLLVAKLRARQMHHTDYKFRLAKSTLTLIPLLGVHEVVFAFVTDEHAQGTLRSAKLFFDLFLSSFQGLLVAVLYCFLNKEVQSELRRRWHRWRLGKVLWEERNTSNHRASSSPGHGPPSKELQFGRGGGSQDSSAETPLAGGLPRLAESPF
Binder,Relative cAMP EC50 [1],cAMP Rel EC50 (in the presence of 1% HSA) [1],Relative cAMP EC50 (hGLP-1R),cAMP Rel EC50 (in the presence of 1% HSA) (hGLP-1R),Relative cAMP EC50 [2],cAMP Rel EC50 (in the presence of 1% HSA) [2]
"YXQGTXTSDXXIXLDXKAQXEFIEXLIEGGPSSGAPPPSGE (Aib, αMeF, 4Pal, αMeS, αMeL, Orn, Me4Pal, αMeY; lipidated Lys; amide; synthetic construct; SITE 2: note = 2-Aminoisobutyric Acid; SITE 6: note = alpha-methyl-L-phenylalanine; SITE 10: note = 3-(4-Pyridyl)-L-alanine; SITE 11: note = alpha-methyl-L-serine; SITE 13: note = alpha-methyl-leucine; SITE 16: note = L-ornithine; SITE 17: note = Lysine is chemically modified th) [Example 1170]",0.00783 nM,0.663 nM,0.395 nM,50.2 nM,2.43 nM,249 nM
YXQGTXTSDXXIXLDXKAQXEFIEXLIEGGPSSGAPPPSGE (non-natural residues; lysine acylated with AEEA linker C18 diacid; C-amide; synthetic construct; SITE 2: note = 2-Aminoisobutyric Acid; SITE 6: note = alpha-methyl-L-phenylalanine; SITE 10: note = 3-(4-Pyridyl)-L-alanine; SITE 11: note = alpha-methyl-L-serine; SITE 13: note = alpha-methyl-leucine; SITE 16: note = L-ornithine; SITE 17: note = Lysine is chemically modified th) [Example 1164],0.0104 nM,1.17 nM,0.495 nM,63.5 nM,2.83 nM,359 nM
YXQGTXTSDXXIXLDXKAQXEFIEXLVEGGPSSGAPPPSGE (non-natural residues; lipidated Lys; C-terminal amide; synthetic construct; SITE 2: note = 2-Aminoisobutyric Acid; SITE 6: note = alpha-methyl-2-fluoro-L-phenylalanine; SITE 10: note = 3-(4-Pyridyl)-L-alanine; SITE 11: note = alpha-methyl-L-serine; SITE 13: note = alpha-methyl-leucine; SITE 16: note = L-ornithine; SITE 17: note = Lysine is chemically mo) [Example 1160],0.00773 nM,0.598 nM,0.365 nM,31.2 nM,2.41 nM,183 nM
YXQGTXTSDXXIXLDXKAQXEFIEXLVEGGPSSGEPPPSGE (non-natural residues; lipidated Lys; C-terminal amide; synthetic construct; SITE 2: note = 2-Aminoisobutyric Acid; SITE 6: note = alpha-methyl-2-fluoro-L-phenylalanine; SITE 10: note = 3-(4-Pyridyl)-L-alanine; SITE 11: note = alpha-methyl-L-serine; SITE 13: note = alpha-methyl-leucine; SITE 16: note = L-ornithine; SITE 17: note = Lysine is chemically mo) [Example 1161],0.00973 nM,0.733 nM,0.39 nM,35.5 nM,2.19 nM,217 nM
YXQGTXTSDXXIXLDXKAQXEFIEXLIEGGPSSGAPPPSGE (non-natural residues; lipidated Lys; C-terminal amide; synthetic construct; SITE 2: note = 2-Aminoisobutyric Acid; SITE 6: note = alpha-methyl-2-fluoro-L-phenylalanine; SITE 10: note = 3-(4-Pyridyl)-L-alanine; SITE 11: note = alpha-methyl-L-serine; SITE 13: note = alpha-methyl-leucine; SITE 16: note = L-ornithine; SITE 17: note = Lysine is chemically mo) [Example 1176],–,0.462 nM,–,43.8 nM,–,229 nM
YXQGTXTSDXXIXLDXKAQXEFIEXLVEGGPSSGAPPPSGSE (Lys acylated (γGlu)2-C18 diacid; non-natural residues; C-amide; synthetic construct; SITE 2: note = 2-Aminoisobutyric Acid; SITE 6: note = alpha-methyl-2-fluoro-L-phenylalanine; SITE 10: note = 3-(4-Pyridyl)-L-alanine; SITE 11: note = alpha-methyl-L-serine; SITE 13: note = alpha-methyl-leucine; SITE 16: note = L-ornithine; SITE 17: note = Lysine is chemically mo) [Example 1162],0.00818 nM,0.656 nM,0.372 nM,34.5 nM,2.55 nM,199 nM
"YXQGTXTSDXXIXLDXKAQXEFIEXLIEGGPSSGEPPPSGSE (non-natural residues, acylated Lys ((γGlu)2-C18 diacid), C-terminal amide; synthetic construct; SITE 2: note = 2-Aminoisobutyric Acid; SITE 6: note = alpha-methyl-L-phenylalanine; SITE 10: note = 3-(4-Pyridyl)-L-alanine; SITE 11: note = alpha-methyl-L-serine; SITE 13: note = alpha-methyl-leucine; SITE 16: note = L-ornithine; SITE 17: note = Lysine is chemically modified th) [Example 1173]",0.00943 nM,0.764 nM,0.604 nM,59.1 nM,2.31 nM,254 nM
YXQGTXTSDXXIXLDXKAQXEFIEXLIEGGPSSGEPPPSGSE (non-natural residues; acylated Lys; C-terminal amide; synthetic construct; SITE 2: note = 2-Aminoisobutyric Acid; SITE 6: note = alpha-methyl-2-fluoro-L-phenylalanine; SITE 10: note = 3-(4-Pyridyl)-L-alanine; SITE 11: note = alpha-methyl-L-serine; SITE 13: note = alpha-methyl-leucine; SITE 16: note = L-ornithine; SITE 17: note = Lysine is chemically mo) [Example 1179],0.0102 nM,0.58 nM,0.652 nM,37.9 nM,2.87 nM,197 nM
YXQGTXTSDXXIXLDXKAQXEFIEXLIEGGPSSGAPPPSGSE (acylated Lys (γGlu)2-C18 diacid; non-natural residues; C-terminal amide; synthetic construct; SITE 2: note = 2-Aminoisobutyric Acid; SITE 6: note = alpha-methyl-L-phenylalanine; SITE 10: note = 3-(4-Pyridyl)-L-alanine; SITE 11: note = alpha-methyl-L-serine; SITE 13: note = alpha-methyl-leucine; SITE 16: note = L-ornithine; SITE 17: note = Lysine is chemically modified th) [Example 1172],0.00886 nM,0.7 nM,0.44 nM,45.5 nM,2.52 nM,303 nM
"YXQGTXTSDXXIXLDXKAQXEFIEXLIEGGPSSGEPPPSGSE (Aib, αMeF, 4Pal, αMeS, αMeL, Orn, Me4Pal, αMeY, acyl, amide; synthetic construct; SITE 2: note = 2-Aminoisobutyric Acid; SITE 6: note = alpha-methyl-L-phenylalanine; SITE 10: note = 3-(4-Pyridyl)-L-alanine; SITE 11: note = alpha-methyl-L-serine; SITE 13: note = alpha-methyl-leucine; SITE 16: note = L-ornithine; SITE 17: note = Lysine is chemically modified th) [Example 1167]",0.011 nM,1.22 nM,0.636 nM,89.2 nM,2.16 nM,274 nM
YXQGTXTSDXXIXLDXKAQXEFIEXLVEGGPSSGEPPPSGSE (non-natural residues; lipidated Lys; C-terminal amide; synthetic construct; SITE 2: note = 2-Aminoisobutyric Acid; SITE 6: note = alpha-methyl-2-fluoro-L-phenylalanine; SITE 10: note = 3-(4-Pyridyl)-L-alanine; SITE 11: note = alpha-methyl-L-serine; SITE 13: note = alpha-methyl-leucine; SITE 16: note = L-ornithine; SITE 17: note = Lysine is chemically mo) [Example 1163],0.00951 nM,0.721 nM,0.449 nM,35.4 nM,1.75 nM,163 nM
YXQGTXTSDXXIXLDXKAQXEFIEXLIEGGPSSGAPPPSGSE (non-natural residues; AEEA-(γGlu)2-C18 diacid on Lys; amide; synthetic construct; SITE 2: note = 2-Aminoisobutyric Acid; SITE 6: note = alpha-methyl-2-fluoro-L-phenylalanine; SITE 10: note = 3-(4-Pyridyl)-L-alanine; SITE 11: note = alpha-methyl-L-serine; SITE 13: note = alpha-methyl-leucine; SITE 16: note = L-ornithine; SITE 17: note = Lysine is chemically mo) [Example 1178],–,0.544 nM,–,39 nM,–,270 nM
"YXQGTXTSDXXIXLDXKAQXEFIEXLIEGGPSSGAPPPSGSE (Aib, alpha-methyl residues, 4Pal, Orn, lipidated Lys, amide; synthetic construct; SITE 2: note = 2-Aminoisobutyric Acid; SITE 6: note = alpha-methyl-L-phenylalanine; SITE 10: note = 3-(4-Pyridyl)-L-alanine; SITE 11: note = alpha-methyl-L-serine; SITE 13: note = alpha-methyl-leucine; SITE 16: note = L-ornithine; SITE 17: note = Lysine is chemically modified th) [Example 1166]",0.00999 nM,1.1 nM,0.478 nM,65.6 nM,2.94 nM,427 nM
